Measurements from patent US20190161555A1 (ALLIGATOR BIOSCIENCE, published 2019).

T1: Construct 84: full length OX40 (human, UniProt P43489 29-277)
T1 construct: whole, on cells
T1 sequence (looked up): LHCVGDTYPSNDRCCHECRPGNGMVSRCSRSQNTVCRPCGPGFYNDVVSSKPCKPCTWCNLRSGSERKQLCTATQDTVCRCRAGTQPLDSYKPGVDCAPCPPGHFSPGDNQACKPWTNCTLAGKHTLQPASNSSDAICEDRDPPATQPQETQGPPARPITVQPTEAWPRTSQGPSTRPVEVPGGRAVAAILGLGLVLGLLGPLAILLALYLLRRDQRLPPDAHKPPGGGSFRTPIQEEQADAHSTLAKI

T2: human OX40 overexpressed on CHO cells (human, UniProt P43489 29-214; P25942 194-277)
T2 construct: extracellular domain;domain: transmembrane and intracellular part; also called hOX40; huOX40 (CHO)
T2 sequence (looked up): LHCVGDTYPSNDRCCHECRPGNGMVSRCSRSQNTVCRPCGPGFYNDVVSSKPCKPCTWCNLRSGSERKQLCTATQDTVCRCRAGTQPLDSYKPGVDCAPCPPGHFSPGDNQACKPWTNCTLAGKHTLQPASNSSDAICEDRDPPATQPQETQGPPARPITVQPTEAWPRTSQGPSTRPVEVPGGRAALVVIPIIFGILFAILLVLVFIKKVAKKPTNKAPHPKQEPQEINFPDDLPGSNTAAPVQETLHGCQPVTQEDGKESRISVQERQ

T3: Human OX40 (R&D Systems, 3388-OX) (human, UniProt P43489 29-216)
T3 construct: bought; also called OX40-Fc; Human OX40 (R&D systems, #3358_OX)
T3 sequence (looked up): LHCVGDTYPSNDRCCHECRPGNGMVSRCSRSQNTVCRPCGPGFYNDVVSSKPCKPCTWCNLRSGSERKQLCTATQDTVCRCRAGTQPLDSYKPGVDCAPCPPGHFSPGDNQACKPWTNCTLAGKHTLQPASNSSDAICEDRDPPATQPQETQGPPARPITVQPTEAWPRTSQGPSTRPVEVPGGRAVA

T4: murine OX40 (murine, UniProt P47741 20-211, limits assumed)
T4 construct: also called mouse OX40
T4 sequence (looked up): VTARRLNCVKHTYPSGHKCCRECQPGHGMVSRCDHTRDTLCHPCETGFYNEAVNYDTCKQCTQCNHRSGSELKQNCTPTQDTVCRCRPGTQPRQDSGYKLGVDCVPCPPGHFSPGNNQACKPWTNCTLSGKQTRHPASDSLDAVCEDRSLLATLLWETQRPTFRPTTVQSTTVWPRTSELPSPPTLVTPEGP

T5: 5T4-Fc (human, UniProt Q13641 32-355, limits assumed)
T5 construct: obtained from Peter L. Stern, University of Manchester; also called h5T4-Fc; recombinant 5T4
T5 sequence (looked up): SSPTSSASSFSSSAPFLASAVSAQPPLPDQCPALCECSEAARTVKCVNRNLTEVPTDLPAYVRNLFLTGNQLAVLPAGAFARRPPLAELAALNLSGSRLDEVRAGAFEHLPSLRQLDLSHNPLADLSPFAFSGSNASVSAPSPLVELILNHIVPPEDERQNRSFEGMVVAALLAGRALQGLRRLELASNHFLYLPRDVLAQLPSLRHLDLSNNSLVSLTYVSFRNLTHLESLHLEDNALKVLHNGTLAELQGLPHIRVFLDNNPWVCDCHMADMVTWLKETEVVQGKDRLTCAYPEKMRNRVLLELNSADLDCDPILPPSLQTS


Tests used:
[1] = molecular target: T1, Construct 84: full length OX40; experiment: flow cytometry, 293-F cells transfected with the construct
Method: The transfected cells were incubated with human OX40 antibodies, human OX40L (hOX40L, RnD Systems), mouse OX40L (mOX40L, RnD Systems) and controls for 30 min 4° C. and then detected with a-huIgG-PE (Jackson Immunoresearch) 30 min 4° C. Cells were analyzed with FACS Verse (BD Biosciences). Binding to the different chimeric constructs were calculated as relative (mean fluorescence intensity) MFI compared to the binding of the isotype control.

[2] = molecular target: T2, human OX40 overexpressed on CHO cells; experiment: flow cytometry on CHO cells overexpressing human OX40, anti-huIgG-PE detection, MFI
Method: The extracellular part of human OX40 was fused to the transmembrane and intracellular part of hCD40 and cloned into pcDNA3.0. The vector was subsequently stably transfected into CHO cells. […] For the assay, the transfected cells were incubated with the test antibodies and controls for 30 min at 4° C. and then detected with a-huIgG-PE (Jackson Immunoresearch) 30 min 4° C. Cells were analyzed by flow cytometry with FACS Verse (BD Biosciences).

CD40 (Ancell) = CD40 (Ancell) (UniProt P25942 21-193, limits assumed); experiment: ELISA, CD40 coated
Method: (§1) ELISA plates were coated with human OX40 (R&D Systems, 3388-OX), CD40 (Ancell), or CD137 (R&D Systems) at 0.1 or 0.5 μg/ml. The ELISA plates were washed with PBST and then blocked with PBST+2% BSA for 1 h at room temperature and then washed again with PBST. The antibodies were added in dilution series to the ELISA plates for 1 h at room temperature and then washed with PBST. Binding was detected using goat anti human kappa light chain HRP, incubated for 1 h at room temperature. SuperSignal Pico Luminescent was used as substrate and luminescence was measured using Fluostar Optima.

CD137 (R&D Systems) = CD137 (R&D Systems) (UniProt Q07011 24-186, limits assumed); experiment: ELISA, CD137 coated
Method: as §1

[3] = molecular target: T3, Human OX40 (R&D Systems, 3388-OX); experiment: ELISA, plates coated with human OX40, IgG
Method: as §1

murine OX40 = molecular target: T4, murine OX40; experiment: ELISA
[4] = molecular target: T3, Human OX40 (R&D Systems, 3388-OX); experiment: SPR Biacore, human OX40 amine-coupled on CM5, antibody injected, 1:1 Langmuir
Method: Human OX40 (R&D systems, #3358_OX) was immobilized to the Biacore™ sensor chip, CM5, using conventional amine coupling. The tested antibodies and controls (serially diluted 1/3 or 1/2 100-2 nM) were analyzed for binding in HBS-P (GE, #BR-1003-68) at a flow rate of […]. The association was followed for 3 minutes and the dissociation for 20 minutes. Regeneration was performed twice using 50 mM NaOH for 60 seconds. The kinetic parameters and the affinity constants were calculated using 1:1 Langmuir model with drifting baseline. […] The kinetic parameters and the affinity constants were calculated using BIAevaluation 4.1 software.

[5] = molecular target: Macaca mulatta OX40 on HEK cells (Macaca mulatta; human); experiment: flow cytometry, macOX40-HEK cells; ends of the 95% confidence interval
Method: For the assay, the transfected cells were incubated with the test antibodies and controls for 30 min at 4° C. and then detected with a-huIgG-PE (Jackson Immunoresearch) 30 min 4° C. Cells were analyzed by flow cytometry with FACS Verse (BD Biosciences).

5T4-Fc = molecular target: T5, 5T4-Fc; experiment: dual ELISA: OX40-Fc coated, detection with biotinylated 5T4-Fc and streptavidin-HRP, luminescence
Method: A dual ELISA was used to detect simultaneous binding of the two targets by the bispecific antibodies. ELISA plates were coated with OX40-Fc (R&D systems, #3388-OX, 0.5 μg/ml) over night at 4° C. followed by blocking with PBST+2% bovine serum albumin (BSA) for 1 h at room temperature (RT). […] Biotinylated 5T4-Fc (0.5 μg/ml), followed by HRP-labelled streptavidin (Pierce #21126) were used for detection. Super signal ELISA Pico Chemiluminescent Substrate (Thermo Scientific, #37069) was used as substrate and luminescence was measured using FLUOstar Optima.

Sequence of CD40 (Ancell) (P25942 21-193 limits assumed): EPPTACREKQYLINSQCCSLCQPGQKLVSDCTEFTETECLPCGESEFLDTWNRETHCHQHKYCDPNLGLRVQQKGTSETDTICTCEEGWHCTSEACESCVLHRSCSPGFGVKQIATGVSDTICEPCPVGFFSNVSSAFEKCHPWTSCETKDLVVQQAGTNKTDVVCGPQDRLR
Sequence of CD137 (R&D Systems) (Q07011 24-186 limits assumed): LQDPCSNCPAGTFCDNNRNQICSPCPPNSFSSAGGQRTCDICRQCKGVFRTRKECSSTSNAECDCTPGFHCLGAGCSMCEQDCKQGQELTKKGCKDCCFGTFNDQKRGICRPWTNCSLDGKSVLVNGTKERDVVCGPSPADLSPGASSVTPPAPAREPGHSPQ

relative MFI [1] [fold over isotype control]	EC50 (read off the curve) [2] [µg/mL]	binding result (CD40 (Ancell))	binding result (CD137 (R&D Systems))	EC50 [3] [nM]	binding result (murine OX40)	Kd [4] [nM]	koff [4] [s⁻¹]	kon [4] [M⁻¹ s⁻¹]	EC50 [5] [µg/mL]	Binder	binding result (5T4-Fc)
27.5	~0.01	no binding	no binding	< 1	no binding	0.308	7.73e-05	251000	–	1164/1135 (antibody, V domains shown, OX40 antibody, tested as IgG) VH: EVQLLESGGGLVQPGGSLRLSCAASGFTFYGSSMYWVRQAPGKGLEWVSGIYSSGGYTSYADSVKGRFTISRDNSKNTLYLQMNSLRAEDTAVYYCARGVPHGYFDYWGQGTLVTVSS VL: not shown	–
31.4	~0.05	no binding	no binding	< 1	no binding	0.811	0.00139	1.71e+06	–	1524/1525 (antibody, V domains shown, OX40 antibody, tested as IgG) VH: EVQLLESGGGLVQPGGSLRLSCAASGFTFGSYYMGWVRQAPGKGLEWVSSIGSYYGYTYYADSVKGRFTISRDNSKNTLYLQMNSLRAEDTAVYYCARHDYGALDYWGQGTLVTVSS VL: DIQMTQSPSSLSASVGDRVTITCRASQSISSYLNWYQQKPGKAPKLLIYAASSLQSGVPSRFSGSGSGTDFTLTISSLQPEDFATYYCQQYGPSGLFTFGQGTKLEIK	–
–	–	no binding	no binding	–	no binding	–	–	–	0.16 to 0.242	1166/1167 (antibody, V domains shown) VH: EVQLLESGGGLVQPGGSLRLSCAASGFTFGGYYMSWVRQAPGKGLEWVSAISGSGGSTYYADSVKGRFTISRDNSKNTLYLQMNSLRAEDTAVYYCARYDYASMDYWGQGTLVTVSS VL: DIQMTQSPSSLSASVGDRVTITCRASQSISSYLNWYQQKPGKAPKLLIYAASSLQSGVPSRFSGSGSGTDFTLTISSLQPEDFATYYCQQYYWYGLSTFGQGTKLEIK	no binding (tested: about 80 nM (log[conc ab] 1.9))
